Legend:
Assay in all cases: cell-based or functional assay
[1] = target: HIV-1 MGRM-AE-001 Env (HIV-1)
[2] = target: HIV-1 92UG031 Env (HIV-1)
[3] = target: HIV-1 MGRM-AG-009 Env (HIV-1)
[4] = target: HIV-1 MGRM-A-008 Env (HIV-1)
[5] = target: HIV-1 MGRM-A-001 Env (HIV-1)
[6] = target: HIV-1 92RW008 Env (HIV-1)
[7] = target: HIV-1 92TH021 Env (HIV-1)
[8] = target: HIV-1 MGRM-A-007 Env (HIV-1)
[9] = target: HIV-1 92UG037 Env (HIV-1)
HIV-1 CMU02 Env (HIV-1) = target: HIV-1 CMU02 Env (HIV-1)
[10] = target: HIV-1 93WR029 Env (HIV-1)
[11] = target: HIV-1 MGRM-A-012 Env (HIV-1)
[12] = target: HIV-1 MGRM-AG-011 Env (HIV-1)
[13] = target: HIV-1 MGRM-AG-002 Env (HIV-1)
[14] = target: HIV-1 92WR024 Env (HIV-1)
[15] = target: HIV-1 MGRM-AG-012 Env (HIV-1)
[16] = target: HIV-1 MGRM-AG-008 Env (HIV-1)
[17] = target: HIV-1 MGRM-A-002 Env (HIV-1)
[18] = target: HIV-1 MGRM-A-009 Env (HIV-1)
[19] = target: HIV-1 MGRM-AE-003 Env (HIV-1)
[20] = target: HIV-1 MGRM-AG-006 Env (HIV-1)
HIV-1 VLGCA1 Env (HIV-1) = target: HIV-1 VLGCA1 Env (HIV-1)
[21] = target: HIV-1 MGRM-AE-005 Env (HIV-1)
[22] = target: HIV-1 MGRM-AG-013 Env (HIV-1)
[23] = target: HIV-1 MGRM-A-014 Env (HIV-1)
[24] = target: HIV-1 MGRM-A-013 Env (HIV-1)
[25] = target: HIV-1 92WR020 Env (HIV-1)
[26] = target: HIV-1 MGRM-AE-004 Env (HIV-1)
[27] = target: HIV-1 MGRM-AG-001 Env (HIV-1)
[28] = target: HIV-1 MGRM-A-010 Env (HIV-1)
[29] = target: HIV-1 MGRM-A-006 Env (HIV-1)
[30] = target: HIV-1 MGRM-AE-006 Env (HIV-1)
[31] = target: HIV-1 MGRM-AE-007 Env (HIV-1)
[32] = target: HIV-1 93UG077 Env (HIV-1)
[33] = target: HIV-1 MGRM-AG-005 Env (HIV-1)
[34] = target: HIV-1 MGRM-A-004 Env (HIV-1)
[35] = target: HIV-1 MGRM-AG-003 Env (HIV-1)
[36] = target: HIV-1 92WR026 Env (HIV-1)
[37] = target: HIV-1 94UG103 Env (HIV-1)
[38] = target: HIV-1 94KE105 Env (HIV-1)
[39] = target: HIV-1 MGRM-AE-002 Env (HIV-1)
[40] = target: HIV-1 MGRM-A-011 Env (HIV-1)
[41] = target: HIV-1 92WR009 Env (HIV-1)
[42] = target: HIV-1 MGRM-A-005 Env (HIV-1)
[43] = target: HIV-1 92WR021 Env (HIV-1)
[44] = target: HIV-1 MGRM-AE-008 Env (HIV-1)
[45] = target: HIV-1 MGRM-A-003 Env (HIV-1)

## 5123_A06 (PGT-125) (antibody)
[1]
  IC50: 2.95 µg/mL
[2]
  IC50: > 50 µg/mL
[3]
  IC50: 0.026 µg/mL
[4]
  IC50: > 50 µg/mL
[5]
  IC50: 12.4 µg/mL
[6]
  IC50: 0.004 µg/mL
[7]
  IC50: 0.006 µg/mL
[8]
  IC50: > 50 µg/mL
[9]
  IC50: 0.005 µg/mL
HIV-1 CMU02 Env (HIV-1)
  IC50: > 50 µg/mL
[10]
  IC50: > 50 µg/mL
[11]
  IC50: 0.177 µg/mL
[12]
  IC50: > 50 µg/mL
[13]
  IC50: > 50 µg/mL
[14]
  IC50: 35.5 µg/mL
[15]
  IC50: > 50 µg/mL
[16]
  IC50: > 50 µg/mL
[17]
  IC50: 0.013 µg/mL
[18]
  IC50: 0.009 µg/mL
[19]
  IC50: 0.092 µg/mL
[20]
  IC50: 0.008 µg/mL
HIV-1 VLGCA1 Env (HIV-1)
  IC50: 0.078 µg/mL
[21]
  IC50: 0.01 µg/mL
[22]
  IC50: 0.004 µg/mL
[23]
  IC50: 13.9 µg/mL
[24]
  IC50: 0.014 µg/mL
[25]
  IC50: 0.004 µg/mL
[26]
  IC50: > 50 µg/mL
[27]
  IC50: > 50 µg/mL
[28]
  IC50: 0.004 µg/mL
[29]
  IC50: > 50 µg/mL
[30]
  IC50: 0.009 µg/mL
[31]
  IC50: 0.876 µg/mL
[32]
  IC50: 0.012 µg/mL
[33]
  IC50: > 50 µg/mL
[34]
  IC50: > 50 µg/mL
[35]
  IC50: > 50 µg/mL
[36]
  IC50: 0.007 µg/mL
[37]
  IC50: 0.008 µg/mL
[38]
  IC50: 0.004 µg/mL
[39]
  IC50: > 50 µg/mL
[40]
  IC50: > 50 µg/mL
[41]
  IC50: 0.144 µg/mL
[42]
  IC50: > 50 µg/mL
[43]
  IC50: 0.005 µg/mL
[44]
  IC50: > 50 µg/mL
[45]
  IC50: > 50 µg/mL

## 5145_B14 (PGT-127) (antibody)
[1]
  IC50: > 50 µg/mL
[2]
  IC50: > 50 µg/mL
[3]
  IC50: 0.059 µg/mL
[4]
  IC50: > 50 µg/mL
[5]
  IC50: > 50 µg/mL
[6]
  IC50: 0.012 µg/mL
[7]
  IC50: > 50 µg/mL
[8]
  IC50: > 50 µg/mL
[9]
  IC50: 0.014 µg/mL
HIV-1 CMU02 Env (HIV-1)
  IC50: > 50 µg/mL
[10]
  IC50: > 50 µg/mL
[11]
  IC50: 0.105 µg/mL
[12]
  IC50: > 50 µg/mL
[13]
  IC50: > 50 µg/mL
[14]
  IC50: > 50 µg/mL
[15]
  IC50: > 50 µg/mL
[16]
  IC50: > 50 µg/mL
[17]
  IC50: 9.42 µg/mL
[18]
  IC50: 0.013 µg/mL
[19]
  IC50: > 50 µg/mL
[20]
  IC50: 0.021 µg/mL
HIV-1 VLGCA1 Env (HIV-1)
  IC50: > 50 µg/mL
[21]
  IC50: > 50 µg/mL
[22]
  IC50: 0.018 µg/mL
[23]
  IC50: 0.24 µg/mL
[24]
  IC50: 0.029 µg/mL
[25]
  IC50: 0.01 µg/mL
[26]
  IC50: > 50 µg/mL
[27]
  IC50: > 50 µg/mL
[28]
  IC50: 0.017 µg/mL
[29]
  IC50: > 50 µg/mL
[30]
  IC50: > 50 µg/mL
[31]
  IC50: > 50 µg/mL
[32]
  IC50: 0.055 µg/mL
[33]
  IC50: > 50 µg/mL
[34]
  IC50: > 50 µg/mL
[35]
  IC50: > 50 µg/mL
[36]
  IC50: 0.024 µg/mL
[37]
  IC50: 0.017 µg/mL
[38]
  IC50: 0.023 µg/mL
[39]
  IC50: > 50 µg/mL
[40]
  IC50: > 50 µg/mL
[41]
  IC50: > 50 µg/mL
[42]
  IC50: > 50 µg/mL
[43]
  IC50: 0.011 µg/mL
[44]
  IC50: > 50 µg/mL
[45]
  IC50: > 50 µg/mL

## 5141_B17 (PGT-126) (antibody)
[1]
  IC50: 9.68 µg/mL
[2]
  IC50: > 50 µg/mL
[3]
  IC50: 0.03 µg/mL
[4]
  IC50: > 50 µg/mL
[5]
  IC50: > 50 µg/mL
[6]
  IC50: 0.008 µg/mL
[7]
  IC50: 0.197 µg/mL
[8]
  IC50: > 50 µg/mL
[9]
  IC50: 0.011 µg/mL
HIV-1 CMU02 Env (HIV-1)
  IC50: > 50 µg/mL
[10]
  IC50: > 50 µg/mL
[11]
  IC50: 0.097 µg/mL
[12]
  IC50: 24.5 µg/mL
[13]
  IC50: > 50 µg/mL
[14]
  IC50: 42 µg/mL
[15]
  IC50: > 50 µg/mL
[16]
  IC50: > 50 µg/mL
[17]
  IC50: 0.015 µg/mL
[18]
  IC50: 0.004 µg/mL
[19]
  IC50: > 50 µg/mL
[20]
  IC50: 0.01 µg/mL
HIV-1 VLGCA1 Env (HIV-1)
  IC50: > 50 µg/mL
[21]
  IC50: 0.324 µg/mL
[22]
  IC50: 0.008 µg/mL
[23]
  IC50: 0.01 µg/mL
[24]
  IC50: 0.006 µg/mL
[25]
  IC50: 0.006 µg/mL
[26]
  IC50: > 50 µg/mL
[27]
  IC50: > 50 µg/mL
[28]
  IC50: 0.002 µg/mL
[29]
  IC50: > 50 µg/mL
[30]
  IC50: 17.3 µg/mL
[31]
  IC50: > 50 µg/mL
[32]
  IC50: 0.02 µg/mL
[33]
  IC50: 1.21 µg/mL
[34]
  IC50: > 50 µg/mL
[35]
  IC50: > 50 µg/mL
[36]
  IC50: 0.008 µg/mL
[37]
  IC50: 0.008 µg/mL
[38]
  IC50: 0.006 µg/mL
[39]
  IC50: > 50 µg/mL
[40]
  IC50: > 50 µg/mL
[41]
  IC50: > 50 µg/mL
[42]
  IC50: > 50 µg/mL
[43]
  IC50: 0.006 µg/mL
[44]
  IC50: > 50 µg/mL
[45]
  IC50: > 50 µg/mL

## 4838_L06 (PGT-121) (antibody)
[1]
  IC50: > 50 µg/mL
[2]
  IC50: > 50 µg/mL
[3]
  IC50: 0.08 µg/mL
[4]
  IC50: > 50 µg/mL
[5]
  IC50: > 50 µg/mL
[6]
  IC50: 0.003 µg/mL
[7]
  IC50: > 50 µg/mL
[8]
  IC50: > 50 µg/mL
[9]
  IC50: 0.031 µg/mL
HIV-1 CMU02 Env (HIV-1)
  IC50: > 50 µg/mL
[10]
  IC50: > 50 µg/mL
[11]
  IC50: 0.092 µg/mL
[12]
  IC50: > 50 µg/mL
[13]
  IC50: > 50 µg/mL
[14]
  IC50: > 50 µg/mL
[15]
  IC50: > 50 µg/mL
[18]
  IC50: 0.006 µg/mL
[19]
  IC50: > 50 µg/mL
HIV-1 VLGCA1 Env (HIV-1)
  IC50: > 50 µg/mL
[21]
  IC50: > 50 µg/mL
[23]
  IC50: 0.003 µg/mL
[24]
  IC50: 0.387 µg/mL
[25]
  IC50: 0.004 µg/mL
[26]
  IC50: > 50 µg/mL
[28]
  IC50: 2.44 µg/mL
[29]
  IC50: 0.396 µg/mL
[30]
  IC50: > 50 µg/mL
[31]
  IC50: > 50 µg/mL
[32]
  IC50: 0.019 µg/mL
[34]
  IC50: > 50 µg/mL
[37]
  IC50: 2.52 µg/mL
[38]
  IC50: 0.029 µg/mL
[39]
  IC50: > 50 µg/mL
[40]
  IC50: > 50 µg/mL
[41]
  IC50: 1.74 µg/mL
[42]
  IC50: > 50 µg/mL
[43]
  IC50: 0.009 µg/mL
[44]
  IC50: > 50 µg/mL
[45]
  IC50: 0.435 µg/mL

Source: patent publication US20160264649A1
